Laboratory results taken from patent US6642040B2, “Human cGMP-stimulated cyclic nucleotide phosphodiesterase” (The Board of Regents of the University of Washington, priority 1991, dated 2003).

Columns and labels:
calmodulin = calmodulin (Homo sapiens, UniProt P0DP23); conditions: cited from earlier work
cAMP and cGMP hydrolysis [1] = test: CaM-dependent PDE activity of homogenates of COS-7 cells transfected with 63 kDa CaM-PDE cDNA; format: biochemical, bovine; conditions: COS-7 cell homogenates
Experimental: COS cells were scraped from the plates and homogenized in a buffer containing 40 mM Tris-HCl (pH=7.5), 5 mM EDTA, 15 mM benzamidine, 15 mM beta-mercaptoethanol, 1 μg per ml pepstatin A and 1 μg per ml peupeptin using a Dounce homogenizer (1 ml per 100 mm plate). Homogenates were assayed for PDE activity according to the procedures of Hanson et al., Proc. Nat'l. Acad. Sci. U.S.A., 79:2788-2792 (1982), using [^3H]cGMP as the substrate. Reactions were carried out at 300 for 10 minutes in a buffer containing 20 mM Tris-HCl (pH=7.5), 20 mM imidazole (pH=7.5), 3 mM MgCl2, 15 mM Mg acetate, 0.2 mg per ml BSA and 1 μM ^3H-cAMP with either 2 mM EGTA or 0.2 mM CaCl2 and 4 μg per ml CaM. Assays were stopped by incubating the tubes in a 900 water bath for 1 minute. After cooling, 10 μl of 2.5 mg per ml snake venom was added to each assay and incubated at 370 for 5 minutes. […] Samples were counted for 1 minute using a Packard Model 1600TR scintillation counter. Specific cyclic nucleotide hydrolytic activity was expressed as picomoles cAMP or cGMP hydrolyzed per minute per mg protein. […]
COS-7 cells were transfected with the p12.3.a/CDM8 construct or mock transfected with the CDM8 vector alone using the DEAE-dextran method as described in Example 1. […] CaM-dependent and independent activities were determined as in Example 1.

cAMP hydrolysis = test: cGS-PDE activity of PPD-S49 cells transfected with cGS-PDE cDNA; format: biochemical, bovine; conditions: zinc-treated PPD S49 cells, pZEM 228 vector
Text: A putative phosphodiesterase-deficient (PPD) strain of S49 cells [Bourne et al., J. Cell. Physiol., 85:611-620 (1975)] was transiently transfected with the cGS-PDE cDNA using the DEAE-dextran method. The cGS-PDE cDNA was ligated into the unique BamHI cloning site in a mammalian expression vector, designated pZEM 228, following a zinc-inducible metallothionine promoter and prior to an SV40 transcription termination sequence. The DNA was purified from large-scale plasmid preparations using Qiagen pack-500 columns as directed by the manufacturer. PPD-S49 cells were cultured in DMEM containing 10% heat-inactivated horse serum, 50 μg/ml penicillin G and 50 μg/ml streptomycin sulfate at 37° C. in a water-saturated 7% CO2 atmosphere. Prior to transfections, confluent 100 mm dishes of cells were replated at one-fifth of the original density and incubated for 24-36 h. In a typical transfection experiment, PPD-S49 cells (50-80% confluent) were washed with Tris-buffered-saline and approximately 2×10^7 cells were transfected with […] of DNA mixed with 400 μg of DEAE-dextran in one ml of TBS. […]
cGS PDE activity was determined by a previously described method using [^3H]cAMP as the substrate as in Martins et al., J. Biol. Chem., 257:1973-1979 (1982). […] The Bradford assay [Bradford, Anal. Biochem., 72:248-254 (1976)] was used to quantitate protein using BSA as the standard.

cGS-PDE activity = cGS-PDE activity of membrane and supernatant fractions of transfected COS-7 cells; format: biochemical, bovine; conditions: most of the activity in supernatant fractions
Text: Transient expression of the CGS-PDE cDNA in COS-7 cells was accomplished as in Example I. A 4.2 kb fragment of p3CGS-5 was isolated using HindIII and NotI and was inserted into plasmid pCDM8, which had been digested with the same enzymes. The character of products produced in COS-7 cells transformed with the p3CGS-5/pCDM8 construct is discussed in Example V, infra.
For transient expression in COS-7 cells, a 3.8 kb fragment of pBBCGSPDE-7 was isolated using HindIII and NotI and inserted into plasmid pCDM8 which had been cut with HindIII and NotI restriction endonucleases. The recombinant pBBCGSPDE-7/CDM8 construct was used to transiently transfect COS-7 cells. The properties of the pBBCGSPDE-7/CDM8 construct and the p3CGS-5/CDM8 construct prepared in Example IV products were subsequently compared. Membrane and supernatant fractions were prepared from extracts of transfected COS-7 cells and assayed for cGS-PDE activity. […] However, a 10-fold greater percentage of total cGS-PDE activity was detected in membranes from COS-7 cell extracts transfected with the pBBCGSPDE-7/CDM8 construct than in membranes prepared from p3CGS-5/CDM8-transfected COS-7 cells.

cAMP and cGMP hydrolysis [2] = test: PDE activity of homogenates of COS-7 cells transfected with 61 kDa CaM-PDE cDNA; format: biochemical, bovine; conditions: COS-7 cell extracts

B1: 59 kDa isozyme: 59 kDa CaM-PDE isozyme isolated from bovine heart (protein, UniProt P14100 1-530, looked up)
Dual specificity …: MGSTATETEELENTTFKYLIGEQTEKMWQRLKGILRCLVKQLEKGDVNVIDLKKNIEYAASVLEAVYIDETRRLLDTDDELSDIQSDSVPSEVRDWLASTFTRKMGMMKKKSEEKPRFRSIVHVVQAGIFVERMYRKSYHMVGLAYPEAVIVTLKDVDKWSFDVFALNEASGEHSLKFMIYELFTRYDLINRFKIPVSCLIAFAEALEVGYSKYKNPYHNLIHAADVTQTVHYIMLHTGIMHWLTELEILAMVFAAAIHDYEHTGTTNNFHIQTRSDVAILYNDRSVLENHHVSAAYRLMQEEEMNVLINLSKDDWRDLRNLVIEMVLSTDMSGHFQQIKNIRNSLQQPEGLDKAKTMSLILHAADISHPAKSWKLHHRWTMALMEEFFLQGDKEAELGLPFSPLCDRKSTMVAQSQIGFIDFIVEPTFSLLTDSTEKIIIPLIEEDSKTKTPSYGASRRSNMKGTTNDGTYSPDYSLASVDLKSFKNSLVDIIQQNKERWKELAAQGEPDPHKNSDLVNAEEKHAETHS
affinity for calmodulin relative to the 61 kDa brain isozyme (calmodulin): 10-20 fold

B2: p12.3.a: expression product of bovine brain 63 kDa CaM-PDE cDNA clone (SEQ ID NO: 27) (protein)
chain: MELSPRSPPEMLESDCPSPLELKSAPSKKMWIKLRSLLRYMVKQLENGEVNIEELKKNLEYTASLLEAVYIDETRQILDTEDELQELRSDAVPSEVRDWLASTFTQQTRAKGPSEEKPKFRSIVHAVQAGIFVERMFRRTYTSVGPTYSTAVLNCLKNVDLWCFDVFSLNRAADDHALRTIVFELLTRHNLISRFKIPTVFLMTFLDALETGYGKYKNPYHNQIHAADVTQTVHCFLLRTGMVHCLSEIEVLAIIFAAAIHDYEHTGTTNSFHIQTKSECAILYNDRSVLENHHISSVFRMMQDDEMNIFINLTKDEFVELRALVIEMVLATDMSCHFQQVKSMKTALQQLERIDKSKALSLLLHAADISHPTKQWSVHSRWTKALMEEFFRQGDKEAELGLPFSPLCDRTSTLVAQSQIGFIDFIVEPTFSVLTDVAEKSVQPTGDDDSKSKNQPSFQWRQPSLDVEVGDPNPDVVSFRSTWTKYIQENKQKWKERAASGITNQMSIDELSPCEEEAPASPAEDEHNQNGNLD
increase in CaM-stimulated cAMP phosphodiesterase activity over basal levels (cAMP and cGMP hydrolysis [1]): 15 fold | increase in CaM-stimulated cGMP phosphodiesterase activity over basal levels (cAMP and cGMP hydrolysis [1]): 12 fold

B3: cGS-PDE cDNA: expression product of bovine adrenal cortex cGS-PDE cDNA (SEQ ID NO: 39) (protein)
chain: MRRQPAASRDLFAQEPVPPGSGDGALQDALLSLGSVIDVAGLQQAVKEALSAVLPKVETVYTYLLDGESRLVCEEPPHELPQEGKVREAVISRKRLGCNGLGPSDLPGKPLARLVAPLAPDTQVLVIPLVDKEAGAVAAVILVHCGQLSDNEEWSLQAVEKHTLVALKRVQALQQRESSVAPEATQNPPEEAAGDQKGGVAYTNQDRKILQLCGELYDLDASSLQLKVLQYLQQETQASRCCLLLVSEDNLQLSCKVIGDKVLEEEISFPLTTGRLGQVVEDKKSIQLKDLTSEDMQQLQSMLGCEVQAMLCVPVISRATDQVVALACAFNKLGGDLFTDQDEHVIQHCFHYTSTVLTSTLAFQKEQKLKCECQALLQVAKNLFTHLDDVSVLLQEIITEARNLSNAEICSVFLLDQNELVAKVFDGGVVEDESYEIRIPADQGIAGHVATTGQILNIPDAYAHPLFYRGVDDSTGFRTRNILCFPIKNENQEVIGVAELVNKINGPWFSKFDEDLATAFSIYCGISIAHSLLYKKVNEAQYRSHLANEMMMYHMKVSDDEYTKLLHDGIQPVAAIDSNFASFTYTPRSLPEDDTSMAILSMLQDMNFINNYKIDCPTLARFCLMVKKGYRDPPYHNWMHAFSVSHFCYLLYKNLELTNYLEDMEIFALFISCMCHDLDHRGTNNSFQVASKSVLAALYSSEGSVMERHHFAQAIAILNTHGCNIFDHFSRKDYQRMLDLMRDIILATDLAHHLRIFKDLQKMAEVGYDRTNKQHHSLLLCLLMTSCDLSDQTKGWKTTRKIAELIYKEFFSQGDLEKAMGNRPMEMMDREKAYIPELQISFMEHIAMPIYKLLQDLFPKAAELYERVASNREHWTKVSHKFTIRGLPSNNSLDFLDEEYEVPDLDGARAPINGCCSLDAE
cGMP-enhanced cAMP phosphodiesterase activity (cAMP hydrolysis): expressed cGMP-enhanced CAMP phosphodiesterase activity | cGS-PDE activity in COS-7 cell extracts (cGS-PDE activity): produced cGS-PDE activities

B4: pCAM-40: expression product of plasmid pCAM-40, full length bovine brain 61 kDa CaM-PDE (SEQ ID NO: 6) (protein)
chain: B1 Dual specificity …
cAMP and cGMP hydrolytic activities compared to mock transfected cells (cAMP and cGMP hydrolysis [2]; in the presence of EGTA): significantly greater | effect of calcium and CaM on cAMP and cGMP hydrolysis (cAMP and cGMP hydrolysis [2]; in the presence of calcium and CaM): stimulation
